The values that follow are results of earlier work, collected in paper PMC7539009.

The target of this data set is VPS29 (Homo sapiens) (UniProt Q9UBQ0). The data set can be described thus: ITC.

Take TBC1D5 132-158 (from UniProt Q92609): the equilibrium dissociation constant (Kd) was 20 µM.
